{
  "source": "paper PMC12550615",
  "about": "“Bifunctional Cysteine-Engineered CAR‑T Cells Enable Thiol-Mediated Targeting to Overcome Antigen Escape in B Cell Lymphoma” (ACS Central Science, 2025)",
  "binders": {"B1": {"name": "G228C CD19-CysCAR (anti-CD19 CAR with the scFv FMC63, CD19-41BB-CAR format, G228C) (scFv, V domains shown)", "VH": "EVKLQESGPGLVAPSQSLSVTCTVSGVSLPDYGVSWIRQPPRKGLEWLGVIWGSETTYYNSALKSRLTIIKDNSKSQVFLKMNSLQTDDTAIYYCAKHYYYGCSYAMDYWGQGTSVTVSS", "VL": "DIQMTQTTSSLSASLGDRVTISCRASQDISKYLNWYQQKPDGTVKLLIYHTSRLHSGVPSRFSGSGSGTDYSLTISNLEQEDIATYFCQQGNTLPYTFGGGTKLEIT", "notes": "scFv FMC63 (light chain domain, linker, heavy chain domain); CD8-derived hinge and transmembrane domains (Kymriah format); 4-1BB costimulatory domain (Kymriah format); Chimeric antigen receptor on T cells; source: primary human T cells, lentiviral transduction, on cells"}},
  "target": "T1, recombinant, fluorescently labeled CD19 (Homo sapiens, UniProt P15391, fluorescent label (dye and site not stated))",
  "T1 construct": "CD19, B-lymphocyte antigen; In the functional rows this molecule stands for CD19 on JeKo-1 WT cells",
  "T1 sequence (P15391 21-277)": "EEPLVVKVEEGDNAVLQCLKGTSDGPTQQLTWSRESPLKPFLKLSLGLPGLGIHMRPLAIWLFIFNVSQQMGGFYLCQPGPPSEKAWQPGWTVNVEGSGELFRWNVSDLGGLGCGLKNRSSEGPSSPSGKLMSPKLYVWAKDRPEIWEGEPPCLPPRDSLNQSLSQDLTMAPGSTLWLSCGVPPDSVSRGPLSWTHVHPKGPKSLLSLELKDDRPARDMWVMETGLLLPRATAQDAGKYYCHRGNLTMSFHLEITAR",
  "experiment": "flow cytometry on cells; recombinant, fluorescently labeled CD19 on CAR-transduced T cells, compared to nontransduced T cells; methods in the Supporting Information",
  "settings": "one partner purified",
  "data": [
    {"binder": "B1", "values": [
      {"measurement": "binding result", "result": "binds"}
    ]}
  ]
}
